Results: patent US20150111836A1, “CELLULAR APOBEC3 PROTEINS AND MODULATORS THEREOF FOR REGULATING DNA REPAIR PROCESSES AND TREATING PROLIFERATIVE DISEASES” (priority 2012, published 2015)
Where a SMILES comes first, the peptide text is derived from it. The star is where a group is joined. Cbz = O=C(OCc1ccccc1)*; CH2F = FC*

Legend:
A3G [1] = test: shRNA-mediated knockdown of A3G expression in H9 cells; format: cell-based, human; details: Western blot, FIG. 8F
Experimental: (§1) For short hairpin (sh) RNA expression, the following puromycin resistance-encoding vectors were used: A3G-specific pLKO.1.shA3G (TRCN0000052188, clone NM_021822.1-398s1 c1; Sigma-Aldrich), having the nucleic acid sequence 5′-CCGG-[…]-CTCGAG-[…]-TTTTTG-3′, as denoted by SEQ ID NO. 92, and the unrelated control cyprinid herpes virus 3 (CyHV3)-specific pLKO.1.shCtr1. […]. Culture supernatants were collected 48 h post transfection, centrifuged for 10 min at 4,000 rpm to remove cell debris and then for 1 h at 35,000 rpm using a swing SW-41 rotor (Beckman). H9 cells were transduced with the concentrated vectors by spinoculation for 1 h at 1,000 rpm and selected with puromycin (1 μg ml^−1) for 3-10 days post transduction.
Transfected or infected cells were harvested, washed once in PBS, re-suspended in SDS-gel loading buffer and boiled for 10 min. Samples of 5×10^4 cells were analyzed by SDS-12% polyacrylamide gel electrophoresis (SDS-PAGE), followed by transfer of the proteins to polyvinylidene fluoride (PVDF) membrane. HIV-1 proteins were detected by using rabbit anti-Vif and monoclonal anti-Ca-p24 antibodies. A3G protein was identified by rabbit polyclonal anti-A3G.

H9 cells [2] = test: γ-H2AX / RPA foci after IR in A3G knockdown H9 cells; format: cell-based, human
Experimental: as §1
(§2) Cells were irradiated by exposure to a ^60Co source producing 1 Gy sec^−1 γ-radiation, or mock-irradiated. Following incubation at 37° C., cells were fixed, attached to glass slides by cytospin, permeabilized with detergent and blocked with 10% normal goat serum. Cells were then incubated with A3G-specific rabbit polyclonal antibody, γ-H2AX-specific monoclonal antibody, or RPA32-specific monoclonal antibody, followed by incubation with goat anti-rabbit Cy-5-conjugated antibody, goat anti-mouse Cy-2-conjugated antibody and DAPI. Slides were mounted and examined by Zeiss LSM 710 confocal microscope. Data were collected sequentially using a ×63 objective with 7-fold averaging at a resolution of […], Z-sections were obtained using an optical slice of less than 1 μm. Data were analyzed with the Zen 2009.

H9 cells [3] = test: Cell cycle analysis following IR; format: cell-based, human; details: H9-shA3G cells, 4 Gy, 20 hours, FIG. 8J
Experimental: PBMC, H9 or puromycin-resistant H9-shRNA cells were irradiated (4 Gy) or mock-irradiated. Following 20 h incubation at 37° C., cells were fixed with methanol for 1 h at −20° C., washed with phosphate buffered saline (PBS), treated with RNase A (50 μg ml ^−1) and stained with PI (5 μg ml^−1). The total cellular DNA content was determined by flow cytometry using FACScan. Cell cycle data were analyzed by the CellQuest Pro software and include 10,000 events gated on singlet cells.

A3G [4] = molecular target: T1, A3G (Homo sapiens, UniProt Q9HC16); format: biochemical; details: for inhibition of A3G deaminase activity: peptide at 1 μM, FIG. 15B; for inhibition of A3G mediated deamination by A3G-derived peptides: 1-100 μM, FIG. 19B
T1 construct: Myc (C); His6 (C); made in house; host or cells: 293T cells (human embryonic kidney), transfected with pcDNA3.1-A3GMyc-His6, Ni-NTA purified
T1 sequence (Q9HC16 whole entry): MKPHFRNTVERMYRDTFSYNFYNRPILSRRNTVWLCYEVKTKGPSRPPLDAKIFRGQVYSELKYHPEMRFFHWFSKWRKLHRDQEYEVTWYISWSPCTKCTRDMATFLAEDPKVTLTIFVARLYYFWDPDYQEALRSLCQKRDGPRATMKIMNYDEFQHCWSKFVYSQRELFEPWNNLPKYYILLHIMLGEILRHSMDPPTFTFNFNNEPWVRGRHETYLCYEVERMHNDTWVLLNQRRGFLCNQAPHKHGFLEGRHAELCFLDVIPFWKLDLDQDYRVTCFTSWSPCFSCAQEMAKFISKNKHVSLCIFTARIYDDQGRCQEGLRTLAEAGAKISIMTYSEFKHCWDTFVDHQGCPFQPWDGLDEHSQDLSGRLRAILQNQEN
Experimental: Deaminase activity of purified enzyme and virion-associated A3G protein was examined as previously described. Briefly, A3G deamination reactions were performed in a total volume of 10 μl in 25 mM Tris, pH 7.0, and 0.01-1 fmol single-stranded (ss) deoxyoligonucleotide substrate at 37° C. The reaction was terminated by heating to 95° C. for 5 min. One μl of the reaction mixture was used for PCR amplification performed in 20 μl buffer S, using the following program: 1 cycle at 95° C. for 3 min, followed by 30 cycles of annealing at 61° C. for 30 s and denaturing at 94° C. for 30 s. Aliquots of the PCR products (10 μl) were incubated with Eco147I restriction enzyme for 1 h at 37° C. Completion of the restriction reaction was verified by using positive-control substrate containing CCU instead of CCC. Restriction-reaction products were loaded onto 14% gels and separated by PAGE. Gels were stained with SYBR gold nucleic acid stain diluted 1:10,000 in 0.5× Tris-Borate-EDTA buffer (TBE, pH 7.8), visualized by UV light (312 nm), captured by an Olympus C-5050 charge-coupled device (CCD) camera and analyzed by optical density (OD) scan using the TINA2.0 densitometry software. Assessment of A3G entrapped in virions was carried out with concentrated viruses stocks of 3-5 μg of p24/μl) suspended in PBS containing Triton X-100 at final concentration of 0.1% (vv) and 50 μg/ml RNase A (Sigma-Aldrich). Deamination reactions were incubated for 1 h at 37° C.
A panel of 46 HIV-1 Vif-derived 15-mer peptides (obtained through the NIH AIDS Research and Reference Reagent Program) were screened for inhibition of purified A3G-His6 catalytic activity in a standard cytidine deamination assay. […] A fluorescein-conjugated peptide (kindly provided by Dr. Assaf Friedler) was used to assess the peptide uptake by H9 cells.

H9 cells [5] = test: DSB repair (γ-H2AX staining) in irradiated H9 cells pre-incubated with Vif peptides; format: cell-based, human; details: 2 h pre-incubation with 100 μM peptide, 4 Gy IR, stained after 8 h
Experimental: as §2
A panel of 46 HIV-1 Vif-derived 15-mer peptides (obtained through the NIH AIDS Research and Reference Reagent Program) were screened for inhibition of purified A3G-His6 catalytic activity in a standard cytidine deamination assay. The inhibitory peptide Vif25-39 corresponds to amino acids 25-39 in HIV-1 HXBII Vif. A fluorescein-conjugated peptide (kindly provided by Dr. Assaf Friedler) was used to assess the peptide uptake by H9 cells. […]

5′-CCGG-GCCAGGTGTATTCCGAACTTA-CTCGAG-TAAGTTCGGAATACACCTGGC-TTTTTG-3′ (DNA CCGGGCCAGGTGTATTCCGAACTTACTCGAGTAAGTTCGGAATACACCTGGCTTTTTG; expressed or natural sequence) [shA3G, A3G-specific shRNA vector TRCN0000052188]
reduction of A3G expression compared to H9-shCtr1 cells (A3G [1]): 70-80%
RPA recruitment to damage-induced foci following IR (H9 cells [2]; H9-shA3G cells, 4 Gy, 2 h, FIG. 10A): did not form such foci
γ-H2AX foci in the hours following IR (H9 cells [2]; H9-shA3G cells, 4 Gy, up to 8 hours, FIG. 8G): did not decrease
G2M arrest following IR (H9 cells [3]): did not undergo G2M arrest

COC(=O)C[C@H](NC(=O)[C@H](C)NC(=O)[C@@H](NC(=O)OCc1ccccc1)C(C)C)C(=O)CF [z-VAD-fmk, reference compound] (Cbz-Val-Ala-Asp(OMe)-CH2F)
DSB incidence in the presence of caspase inhibitor (H9 cells [2]; 20 μM, 1 hour pre-incubation, γ-H2AX 6 hours after IR, FIG. 8H): comparable with cells treated with mock

DCFSESAIRNAILGH (Viral - Vif peptide) [Vif113-127]
inhibition of A3G deaminase activity (A3G [4]): inhibited

DLADQLIHLYYFDCF (Viral - Vif peptide) [Vif101-115]
inhibition of A3G deaminase activity (A3G [4]): inhibited

GWFYRHHYESTHPRI (Viral - Vif peptide) [Vif37-51]
inhibition of A3G deaminase activity (A3G [4]): inhibited

IHLYYFDCF (Viral - Vif peptide) [SEQ ID NO. 71]
inhibition of A3G mediated deamination by short Vif- and A3F-derived peptides (A3G [4]; 0.001 to 10 μM, FIG. 19A): distinct inhibitory pattern

IVWQVDRMRIRTWKS [Vif9-23]
inhibition of A3G deaminase activity (A3G [4]): inhibited

RMHNDTWVLLNQRRG (listed as Homo sapiens) [SEQ ID NO. 84]
inhibition of A3G mediated deamination by A3G-derived peptides (A3G [4]): marked inhibitory effect

WRKKRYSTQVDPDLA (Viral - Vif peptide) [Vif89-103, control peptide]
inhibition of A3G-mediated deamination (A3G [4]; peptide at 100 μM): did not inhibit
cells containing DSBs (H9 cells [5]): < 8%

WVRGRHETYLCYEVE (listed as Homo sapiens) [SEQ ID NO. 83]
inhibition of A3G mediated deamination by A3G-derived peptides (A3G [4]): marked inhibitory effect
